Experimental data taken from the nanobody polyreactivity screen of Harvey et al. (2022).

Experiment: yeast display, Sf9 membrane polyspecificity reagent, FACS + sequencing; frameworks hold sequencing errors
Procedure, shortened: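 A synthetic nanobody library was expressed on Saccharomyces cerevisiae BJ5465 by galactose induction for 36–48 hours. The library was stained for 1 hour at 4 °C with 10% biotinylated, detergent-solubilized Sf9 membrane reagent and enriched with streptavidin microbeads before FACS. Low and high (top ~1%) gates were set on anti-HA fluorescence for expression and streptavidin fluorescence for reagent binding, and each polyreactivity label reflects the gate of origin.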

Sequence | polyreactivity (PSR sort gate)
QVQLVESGGGLVQAGGSLRLSCAASGSIFAPYAMGWYRQAPGKEREVVAAITSGVGSTYYADSVKGRFTISRDNAKNTVYLQMNSLKPEDTAVYYCAADSSYLTYWEYDYWGQGSQVTVSS | low polyreactivity
QVQLVESGGGLVQAGGSLRLSCAASGFTFTENVMGWYRQAPGKEREFVAAITYIGGRTYYADSVKGRFTISRDNAKNTVYLQMNSLKPEDTAVYYCAADWAYYVASYLYYTFAYWGQGTQVTVSS | low polyreactivity
QVQLVESGGGLVQAGGSLRLSCAASGIIFVSYAMGWYRQAPGKERELVAAITRRGSRTYYADSVKGRFTISRDNAKNTVYLQMNSLKPEDTAVYYCAADSQAARYHAYDYWGQGTQVTVSS | high polyreactivity
QVQLVESGGGLVQAGGSLRLSCAASGITSSTYAMGWYRQAPGKERELVAAISLSGSSTNYADSVKGRFTISRDNAKNTVYLQMNSLKPEDTAVYYCAATNYRTYPYGYWGQGTQVTVSS | high polyreactivity
QVQLVESGGGLVQAGGSLRLSCAASGFTFRDYAMGWYRQAPGKEREFFADITFSGDNTRYADSVKGRFTISRDNAQNTVYLQMNSLKPEDTAVYYCNADRVVGPYDGYDYWGQGTQVTVSS | low polyreactivity
QDQLVESGGGLVQAGGSLRLICAASGSNFGYYGMGWYRQAPGKEREFVAAITFSGGSTYYADSVKGRFTISRDNAKNTVYLQMNSLKPEDTAVYYFAAVYYGPYTYRHKMYYWGQGTQVTVSS | low polyreactivity
QVQLEESGGGFVQAGGCLRLSCAASGRIFYGYAMGWYRQAPGKERELVAAITRSSSTYYADSVKGRFTISRDNAKNTVYLQMNSQKPEDTAVYYCAAVMYATRPVYGFESWGLGTQVTVSS | high polyreactivity
QVQLVESGGGLVQAGGSLRLSCAASGRTIYYYAMGWYRQAPGKEREFVAAISWHGGSTYYADSVKGRFTISRDNAKNTVYLQMNSLKPEDTAVYYCAAERYDRVGFDYWGQGTQVTVSS | low polyreactivity
QVLLQESGSGLVQAGGSLRLSCAASGTISTDIRIGLYRLAPRKEREFVASIDGCSTTYYADSVKGRFTISRDNAKNSVYLQMNSLKPEVTAMYYCAAREATEFYLYYWGQGTQVTVSS | low polyreactivity
QVQLVESGGGLVQAGGSLRLSCAASGRIFWEYAMGWYRQAPGKERELVAAITWRVGSTYYADSVKGRFTISRDNAKNTVYLQMNSLKPEDTAVYYCAAARYLSIYNYWGQGTQVTVSS | low polyreactivity
QVQLVESGGGLVQAGGSLRLSCAASGRISAYYAMGWYRQAPGKERELVAVITSGGRTNYADSVKGRFTISRDNAKNTVYLQMNSLKPEDTAVYYCAARSRVSPRYDYWGQGTQVTVSS | high polyreactivity
QVQLVESGGGIVQAGGSLRLICAASGFIFEFNVMGWYRQSPGKERQLVAAISRSGGSTYYADSVKGRFTISRDNAKNTVYLQMISLKPEDSAVYYCAARSYRSGTHGYNYWGQGTQVTVSS | high polyreactivity
QVQLVESGGGLVQAGGSLRLSCAASGSTFRLYAMGWYRQAPGKERELVASITTGGSTYYADSVKGRFTISRDNAKNTVYLQMNSLKPEDTAVYYCAAEEYWEMDYWGQGTQVTVSS | low polyreactivity
QVQLVESGGGLIQAGGSLRLSCATSGSIFDDYAMGWYRQAPGKERELVAAISSSGTSTYYADSVKGRFTISRDNAKNTVYLQMKSLKPEDTAVYYCAARSAILKSGYLMDYWGQGTQVTVSS | low polyreactivity
QVQLVESGGGLVQAGGSLRLSCAASGSTFENNVMAWYRQAPGKERELVATITWGDGSTSYADSVKGRFTISRDNAKNTVYLQMNSLKPEDTAVYYCAADSAENVYRGYYWGQGTQVTVSS | low polyreactivity
QVQLVESGGGIVQAGGSLRLICAASGFTFSYYAMAWYRQAPGKEREFVAAITRSGSTYYADSVKGRFTISRENAKNTVYLQMISLKPEDTSVYYCAARFLYRYDYWGQGTQVTVSS | high polyreactivity
QVQLVESGGGLVQAGGSLRLSCAASGRIFYRNAMGWYRQAPGKERELVAAISSSAGSTYYADSVKGRFTISRDNAKNTVYLQMNSLKPEDTAVYYCAAGSGTFVTRYRYGYWGQGTQVTVSS | high polyreactivity
QDQLVESRGGLVQAGGSLRLSCAASGSISVKYAMGWYRQAPGKERELVAAISSDGNTYYADSVKGRFTISRDNAKYNVYLQMNSLKPEDTAVYYCAPAKVSWFGLKYYYWGQGTQVTVSS | high polyreactivity
QVQLVESGGGLVQAGGSLRLRCAASGRTFWWNAMGWYRQAPGKERELVAGTYSRGGGTYYADSVKGRFTISRDNAKNRVYLQMNRLKAEDTAVYYCASQAPVYRYYYWGQGTQVTVSS | high polyreactivity
QVQLVESGGGLVQAGGSLRLSCAASGSIFKLNAMGWYRQAPGKERELVAAITFSDGSTNYADSVKGRFTISRDNAKNTVYLQMNSLKPEDTAVYYCAAEFYYRTQWYYYWGQGTQVTVSS | high polyreactivity
QVQLVESGRGLVQAGGSLRLSCAASGRIFLYYAMGWYRQAPGKEREFVAAITYIGGSTYYADSVKGRFTISRDNAKNTVYLQMNSLKPEDTAVYWGQGTQVTVSS | low polyreactivity
QVQLVESGGGLVLAGGSLRLSCAASGSIFNVYAMGWYRQAPGKERELVASITRRRTNYADSVKGRFTISRDNAKNTVYLQMNSLKPEDTAVYYCAATTYVRQYATYDYWGQGTQVTVSS | high polyreactivity

Sequence | polyreactivity (PSR sort gate)
QVQLVESGGGLVQAGGSLRLSCAASGRIFKYYAMGWYRQAPGKERELVAAITWSGGNTYYADSVKGRFTISRDNAKNTVYLQMNSLKPEDTAVYYCAREVYYPIRQYNYWGQGTQVTVSS | high polyreactivity
QVQIVESGVGLVQAGGSLSLSCAASGIIIHSNAMGWYRQAPGKERELVAAITSSGGSKYYADSVKGRFTISRDNAKNTVYLQMNSLKPVDTAVYYCAVVTILVYRYVVPYDYWGHGTQVTVSS | high polyreactivity
QVQLVESGGGLVQAGGSHRLSCASSGSTFLPNAMGWYRQPPGKERELVAAITNSGGNTYADSVKGRFTISRDNAKNTVYLEMNSLKPEDTAVYYCNARFSPTGWARGNDYWGQGTQVTVSS | low polyreactivity
QVQLVESGGGLVQAGGSLRLSCAASGRICGYNSMGWYRQAPGKERELVAAISSSGGSTYYADSVKGRFTISRDYATNTVYVQMNSLKREATAVYYCAARIGYRSWAWDAYEYCGQGTQVTVSS | low polyreactivity
QVQLVESGGGLVQAGGSLRLSCAASGSIFGVYAMGWYRQAPGKEREFVASISWSAGSTYYADSVKGRFTISRDNAKNTVYLQMNSLKPEDTAVYYCAARVWRYPYYWGQGTQVTVSS | high polyreactivity
QVQLVDSAGGLVQAGGSLRLSCAASGLNYAIYAMGWYREAPGKERELVAAIRWSGASTYADSVKGRFTISRDNAKNTVYLQMNSLKPEDTAVYYCAADDLLDYDYWGQGTQVTVSS | low polyreactivity
QVQLVESGGGIVQAGGSLRLSCAASGRTFYRNAMGWYIHAPGKERELVAAITSGGSTYYADSVKGRFTISRDNAKNSGYLQMNCLKPEDTAVYYCAALRHALRYDYWGQGTQVTVSS | low polyreactivity
QVQLVESGGGLVQAGGSLRLSCAASGSTFENNAMGWYRQAPGKERELVASSTNYADSVKGRFTISRDNAKNTVYLQMNSLKPEDTAVYYCNLDTNSSYEFNSWGQGTQVTVSS | low polyreactivity
QVQLVESGGGLVQAGGSLRLSCAASGRTFGSYVMGWYRQAPGKERELVAAISWSSGITYYADSVKGRFTISRDNAKNTVYLQMNSLKPEDTAVYYCAARIWDSRAYYYWGQGTQVTVSS | high polyreactivity
QVQLVESGGGLVQAGGSLRLSCAASGSIFYENTMGWYRQAPGKEREFVAAISRSGGSTYYADSEKGRYTISRDNAKNTVYLQRNSLKPEDTAVYYCAAKSRRYHHEYYYWGQGTQVTVSS | high polyreactivity
QVQLVESGGGLVQAGGSLRLSFAASGRIFGYYAMGWYRQAPGKERELVAAITTSDGSTYYADSVKGRFTISRDNAKNTVYLQMNSLKPEDTAVYYCNARRWGYQWRGDYWGQGTQVTVSS | high polyreactivity
QVQLVESVGGLVQAGGSLRLSCAASGRIFYTYAMGWYRPAPGKERELVAAISSRTGSTYYADSVKGRFTISRDNAKNTVYLQMNSLKPEDTAVYYCNAYRLRYGYDYWGQGTQVTVSS | high polyreactivity
QVQLVESGGGLVQAGGSLRLSCAASGSTLYYNAMGWYRQAPGKERELVAAITSGGSTSYADSVKGRFTISRDNAKNTVYLQMNSLKPEDTAVYYCAAVFYRRFDYWGQGTQVTVSS | low polyreactivity
QDQLVESGGGLVQAGGSLSLSCAASGSTYDRNAMGWYIQAPGKEREMVAGISFSGGTTYYADSVKGRFTISRDNAKNTVYLQMNRLKPEDTEVYDCAASTYQPGAVPFDYWGQGSQVTVSS | low polyreactivity
QVQLVESGGGLVQAGGSLRLSCAASGSTFPRNAMGWYRQAPGKERELVAAISYSGGRTYYADSVKGRFTISRDNAKNTVYLQMNSLKPEDTAVYYCAAQPYSLVRGKSYGYWGQGTQVTVSS | high polyreactivity
QVQLVESGGGLVQAGGSLRLSCAASGNTFSDYAMGWYRQAPGKERELVAAISSSGVRTYYADSVKGRYTISRDNAKNTVYLQINSLKPEDTAVSYCNAVLNQLSYIYPAVGFWGQGTLVTVSS | high polyreactivity
QVQLVESGGGLVQAGGSLRLICAASGFTFTGNAMGWYRQAPGKERELVAAITRGGSTKYADSVKGRITISRDNAMHTVYLQMNSLKPEDTAVYYCAAGVRYYRYYYWGQGTQVTVSS | high polyreactivity
QVQLVESGGGLVQAGGSLRLSCAASGSTLSIYAMGWYRQAPGKERELVATIRWSAGRTSYADSVKGRFTISRDNAMNTVYLQMNSLKPEDTAVYSCNAVRYRYYFYWTGKSYDYWGQGTQVTVSS | high polyreactivity
QLQLVESGGGLVQAGGSLRLSCAASGLTYEGYAMGWYRQAPGKERELVAAITGSGSTTYYADSVKGRFTISRDNAKNTVYLQMNSLKPEDSAVYYCAADVSYKLYWGQGTQVTVSS | low polyreactivity
QVQLVESGGGLVQAGGSLRLSCAASGGTFFVYMGGYRQAPGNERELVADISGSGGGTYYADSVKGRFTISRDNAKNTVYLQMNSLKPEDTAVYYCATDVPTGIIRMYWGQGTQVTVSS | low polyreactivity
QVQLVESSGGLVQAGGSLRLICAASGRIFSRYPMGWYRKAPGKERELVAAITYSGGNTYYADSVKGRFTISRDYAKNTVYLQMNSLKPEDTAVYYCNAYRPYYSYVSHEHYYWGQGTQVTVSS | high polyreactivity
